B1: Azoarcus group I ribozyme (parent)
chain: GUGCCUUGCGCCGGGAAACCACGCAAGGGAUGGUGUCAAAUUCGGCGAAACCUAAGCGCCCGCCCGGGCGUAUGGCAACGCCGAGCCAAGCUUCGGCGCCUGCGCCGAUGAAGGUGUAGAGACUAGACGGCACCCACCUAAGGCAAACGCUAUGGUGAAGGCAUAGUCCAGGGAGUGGCGAAAGUCACACAAACCGG

Variants of: B1
Test: reverse-splicing fitness (ratio to wild type); higher = more active; in vitro selection; Mg2+ level not given
Method in brief: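 An in vitro group I ribozyme library with randomized positions was T7-transcribed and gel-purified. In triplicate, 10 pmol RNA in EPPS pH 7.5 was reacted with 50 pmoles of a 30-nt RNA substrate for 1 h at 37 °C across several added MgCl2 levels (1–48 mM), then stopped with EDTA. Products were reverse transcribed from a substrate-complementary primer, PCR-amplified and sequenced (HiSeq 4000). Fitness is a variant's read proportion after selection over that before, normalised to wild type.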

With C82G A111C A120U A145G C150U C169A as the variant, how does the reverse-splicing fitness read?
The reverse-splicing fitness was 0.00785.

For C82G A111C A120U A145G C150U C169U, which reverse-splicing fitness is on record?
The reverse-splicing fitness was 0.00642.

With C82G A111C A120U A145G C150U C169G as the variant, how does the reverse-splicing fitness read?
Its reverse-splicing fitness is 0.00657.

With C82G A111C A120U A145U as the variant, how does the reverse-splicing fitness read?
Its reverse-splicing fitness is 0.0481.

With C82G A111C A120U A145G as the variant, how does the reverse-splicing fitness read?
Its reverse-splicing fitness is 0.0506.

With C82G A111C A120U A145U C150U C169A U176G as the variant, how does the reverse-splicing fitness read?
The reverse-splicing fitness was 0.00223.

With C82G A111C A120U A145U C150U C169A U176C as the variant, how does the reverse-splicing fitness read?
Its reverse-splicing fitness is 0.00293.

Which reverse-splicing fitness does the source give for C82G A111C A120U A145U C150U C169A U176A here?
The reverse-splicing fitness was 0.00282.

Which reverse-splicing fitness does the source give for C82G A111C A120U A145C C150U C169G U176C here?
Its reverse-splicing fitness is 0.00305.

For C82G A111C A120U A145C C150U C169G U176G, which reverse-splicing fitness is on record?
Its reverse-splicing fitness is 0.00262.

For C82G A111C A120U A145C C150U C169G U176A, which reverse-splicing fitness is on record?
Its reverse-splicing fitness is 0.00257.

Which reverse-splicing fitness does the source give for C82G A111C A120U A145U C150A U176A here?
Its reverse-splicing fitness is 0.00533.

For C82G A111C A120U A145U C150A U176C, which reverse-splicing fitness is on record?
The reverse-splicing fitness was 0.00583.

For C82G A111C A120U A145U C150A U176G, which reverse-splicing fitness is on record?
The reverse-splicing fitness was 0.00269.

Which reverse-splicing fitness does the source give for C82G A111C A120U A145G C150G U176A here?
The reverse-splicing fitness was 0.00628.

Which reverse-splicing fitness does the source give for C82G A111C A120U A145G C150G U176G here?
The reverse-splicing fitness was 0.00447.

For C82G A111C A120U A145G C150G U176C, which reverse-splicing fitness is on record?
The reverse-splicing fitness was 0.009.

Which reverse-splicing fitness does the source give for C82G A111C A120U A145G C150G C169U here?
The reverse-splicing fitness was 0.00758.

With C82G A111C A120U A145G C150G C169A as the variant, how does the reverse-splicing fitness read?
The reverse-splicing fitness was 0.00854.

With C82G A111C A120U A145G C150G C169G as the variant, how does the reverse-splicing fitness read?
Its reverse-splicing fitness is 0.00703.

With C82G A111C A120U A145U C150G C169G U176G as the variant, how does the reverse-splicing fitness read?
Its reverse-splicing fitness is 0.00242.

With C82G A111C A120U A145U C150G C169G U176A as the variant, how does the reverse-splicing fitness read?
Its reverse-splicing fitness is 0.00287.

Which reverse-splicing fitness does the source give for C82G A111C A120U A145U C150G C169G U176C here?
The reverse-splicing fitness was 0.00317.

Which reverse-splicing fitness does the source give for C82G A111C A120U A145U C169A U176C here?
The reverse-splicing fitness was 0.00242.

With C82G A111C A120U A145U C169A U176A as the variant, how does the reverse-splicing fitness read?
Its reverse-splicing fitness is 0.00261.

With C82G A111C A120U A145U C169A U176G as the variant, how does the reverse-splicing fitness read?
Its reverse-splicing fitness is 0.00195.

With C82G A111C A120U A145U C150U C169G U176C as the variant, how does the reverse-splicing fitness read?
The reverse-splicing fitness was 0.00346.

Which reverse-splicing fitness does the source give for C82G A111C A120U A145U C150U C169G U176G here?
The reverse-splicing fitness was 0.00273.

For C82G A111C A120U A145U C150U C169G U176A, which reverse-splicing fitness is on record?
Its reverse-splicing fitness is 0.00347.

For C82G A111C A120U A145G U176A, which reverse-splicing fitness is on record?
The reverse-splicing fitness was 0.0112.

For C82G A111C A120U A145G U176G, which reverse-splicing fitness is on record?
Its reverse-splicing fitness is 0.004.

With C82G A111C A120U A145G U176C as the variant, how does the reverse-splicing fitness read?
The reverse-splicing fitness was 0.0203.

For C82G A111C A120U C150A C169G, which reverse-splicing fitness is on record?
Its reverse-splicing fitness is 0.0046.

For C82G A111C A120U C150A C169A, which reverse-splicing fitness is on record?
The reverse-splicing fitness was 0.00547.

For C82G A111C A120U A145G C150U, which reverse-splicing fitness is on record?
The reverse-splicing fitness was 0.0408.

With C82G A111C A120U A145G C150G as the variant, how does the reverse-splicing fitness read?
Its reverse-splicing fitness is 0.0111.

With C82G A111C A120U A145G C150A as the variant, how does the reverse-splicing fitness read?
The reverse-splicing fitness was 0.0106.

Which reverse-splicing fitness does the source give for C82G A111C A120U A145G C150A C169G U176A here?
Its reverse-splicing fitness is 0.00649.

For C82G A111C A120U A145G C150A C169G U176G, which reverse-splicing fitness is on record?
The reverse-splicing fitness was 0.00277.

For C82G A111C A120U A145G C150A C169G U176C, which reverse-splicing fitness is on record?
The reverse-splicing fitness was 0.00534.

For C82G A111C A120U A145C C169U U176A, which reverse-splicing fitness is on record?
Its reverse-splicing fitness is 0.00293.

Which reverse-splicing fitness does the source give for C82G A111C A120U A145C C169U U176C here?
Its reverse-splicing fitness is 0.00289.

Which reverse-splicing fitness does the source give for C82G A111C A120U A145C C169U U176G here?
Its reverse-splicing fitness is 0.00214.

With C82G A111C A120U A145G C150A C169A as the variant, how does the reverse-splicing fitness read?
The reverse-splicing fitness was 0.00787.

With C82G A111C A120U A145G C150A C169G as the variant, how does the reverse-splicing fitness read?
The reverse-splicing fitness was 0.0054.

Which reverse-splicing fitness does the source give for C82G A111C A120U A145G C150A C169U here?
Its reverse-splicing fitness is 0.00514.

With C82G A111C A120U A145G C150G C169G U176C as the variant, how does the reverse-splicing fitness read?
The reverse-splicing fitness was 0.00829.

Which reverse-splicing fitness does the source give for C82G A111C A120U A145G C150G C169G U176A here?
The reverse-splicing fitness was 0.00983.

With C82G A111C A120U A145G C150G C169G U176G as the variant, how does the reverse-splicing fitness read?
Its reverse-splicing fitness is 0.00427.

Which reverse-splicing fitness does the source give for C82G A111C A120U A145C C169A U176G here?
The reverse-splicing fitness was 0.00216.

Which reverse-splicing fitness does the source give for C82G A111C A120U A145C C169A U176C here?
Its reverse-splicing fitness is 0.00237.

For C82G A111C A120U A145C C169A U176A, which reverse-splicing fitness is on record?
Its reverse-splicing fitness is 0.0016.

For C82G A111C A120U A145G C150G C169U U176G, which reverse-splicing fitness is on record?
The reverse-splicing fitness was 0.00438.

With C82G A111C A120U A145G C150G C169U U176A as the variant, how does the reverse-splicing fitness read?
The reverse-splicing fitness was 0.00988.

With C82G A111C A120U A145G C150G C169U U176C as the variant, how does the reverse-splicing fitness read?
The reverse-splicing fitness was 0.00748.

For C82G A111C A120U A145U C150G C169U U176G, which reverse-splicing fitness is on record?
The reverse-splicing fitness was 0.00234.

For C82G A111C A120U A145U C150G C169U U176C, which reverse-splicing fitness is on record?
Its reverse-splicing fitness is 0.00292.

For C82G A111C A120U A145U C150G C169U U176A, which reverse-splicing fitness is on record?
Its reverse-splicing fitness is 0.00309.

Which reverse-splicing fitness does the source give for C82G A111C A120U A145G C150U C169G U176A here?
Its reverse-splicing fitness is 0.00573.

For C82G A111C A120U A145G C150U C169G U176C, which reverse-splicing fitness is on record?
Its reverse-splicing fitness is 0.00437.

For C82G A111C A120U A145G C150U C169G U176G, which reverse-splicing fitness is on record?
Its reverse-splicing fitness is 0.00259.

With C82G A111C A120U A145C U176C as the variant, how does the reverse-splicing fitness read?
The reverse-splicing fitness was 0.013.

With C82G A111C A120U A145C U176A as the variant, how does the reverse-splicing fitness read?
Its reverse-splicing fitness is 0.0111.

For C82G A111C A120U A145C U176G, which reverse-splicing fitness is on record?
Its reverse-splicing fitness is 0.00462.

Which reverse-splicing fitness does the source give for C82G A111C A120U A145U C169U U176C here?
The reverse-splicing fitness was 0.00318.

For C82G A111C A120U A145U C169U U176G, which reverse-splicing fitness is on record?
Its reverse-splicing fitness is 0.00187.

With C82G A111C A120U A145U C169U U176A as the variant, how does the reverse-splicing fitness read?
Its reverse-splicing fitness is 0.00319.

With C82G A111C A120U A145U C150A C169G as the variant, how does the reverse-splicing fitness read?
Its reverse-splicing fitness is 0.00295.

For C82G A111C A120U A145U C150A C169U, which reverse-splicing fitness is on record?
Its reverse-splicing fitness is 0.00311.

For C82G A111C A120U A145U C150A C169A, which reverse-splicing fitness is on record?
The reverse-splicing fitness was 0.00247.

With C82G A111C A120U A145G C150U C169A U176A as the variant, how does the reverse-splicing fitness read?
Its reverse-splicing fitness is 0.00776.

With C82G A111C A120U A145G C150U C169A U176G as the variant, how does the reverse-splicing fitness read?
Its reverse-splicing fitness is 0.00301.

For C82G A111C A120U A145G C150U C169A U176C, which reverse-splicing fitness is on record?
The reverse-splicing fitness was 0.00436.

With C82G A111C A120U A145C C150U C169A U176G as the variant, how does the reverse-splicing fitness read?
Its reverse-splicing fitness is 0.0025.

For C82G A111C A120U A145C C150U C169A U176A, which reverse-splicing fitness is on record?
Its reverse-splicing fitness is 0.00238.

For C82G A111C A120U A145C C150U C169A U176C, which reverse-splicing fitness is on record?
Its reverse-splicing fitness is 0.0022.

For C82G A111C A120U A145C C150U U176G, which reverse-splicing fitness is on record?
Its reverse-splicing fitness is 0.00325.

With C82G A111C A120U A145C C150U U176A as the variant, how does the reverse-splicing fitness read?
The reverse-splicing fitness was 0.00523.

For C82G A111C A120U A145C C150U U176C, which reverse-splicing fitness is on record?
The reverse-splicing fitness was 0.00491.

For C82G A111C A120U A145U C150G U176A, which reverse-splicing fitness is on record?
The reverse-splicing fitness was 0.00411.

For C82G A111C A120U A145U C150G U176G, which reverse-splicing fitness is on record?
Its reverse-splicing fitness is 0.00265.

Which reverse-splicing fitness does the source give for C82G A111C A120U A145U C150G U176C here?
The reverse-splicing fitness was 0.0062.

Which reverse-splicing fitness does the source give for C82G A111C A120U A145U C150A C169U U176A here?
Its reverse-splicing fitness is 0.00302.
